# Data taken from patent US20210380703A1.
# Numbering of substitutions follows the chain as printed.
# B1: 374_C06 (antibody, V domains shown)
# VH: EVQLLESGGGLVQPGGSLRLSCAASGFTFDDYSMNWVRQAPGKGLEWVSSINYNSGYKGYADSVKGRFTISRDNSKNTLYLQMNSLRAEDTAVYYCARSANWHDTALDYWGQGTLVTVSS
# VL: DIQMTQSPSSLSASVGDRVTITCRASQSILTYVNWYQQKPGKAPKLLIYAATSRASGVPSRFSGSGSGTDFTLTISSLQPEDFATYYCQQSYNSPLTFGGGTKVEIK
# B2: 374_B12 (antibody, V domains shown)
# VH: B1 VH with D31S, S49A, S50G, S55G, K58T, A106H
# VL: B1 VL with L30S, T31S, V33L, L47V, N93D, S94N
# B3: 374_D08 (antibody, V domains shown)
# VH: B1 VH with D31S, S33G, S50G, K58T, A106H
# VL: B1 VL with V33L, A55H, N93E
# B4: 374_C03 (antibody, V domains shown)
# VH: B1 VH with D31S, S50G, K58T, G59S
# VL: B1 VL with V33L, N93D
# B5: 376_F06 (antibody, V domains shown)
# VH: B1 VH with D30S, D31S, S33G, S50G, S55G, K58T, S99G, A106H
# VL: B1 VL with L47V, N93E, S94T
# B6: 376_G10 (antibody, V domains shown)
# VH: B1 VH with D31S, S33G, S49A, S50G, S55G, K58T, G59S, S99G
# VL: B1 VL with T31S, N93E
# B7: 366_D08 (antibody, V domains shown)
# VH: B1 VH with D30S, D31S, S33G, N35H, S50N, S55G, G59S, S99G, N101T, A106H
# VL: B1 VL with T31S, L47V, R54L, N93E, S94N
# B8: 370_B08 (antibody, V domains shown)
# VH: B1 VH with D30S, S49A, S50N, S55G, K58T, S99G, N101T, A106H
# VL: B1 VL with T31S, V33L, T52S, R54L, A55Q, N93D
# B9: 365_C04 (antibody, V domains shown)
# VH: B1 VH with D31S, S49A, S50N, S55G, S99G, N101T, A106H
# VL: B1 VL with V33L, L47V, R54L, N93D, S94T
# B10: 368_H11 (antibody, V domains shown)
# VH: B1 VH with D31S, S33G, N35H, S49A, S55G, K58T, G59S, S99G, N101T, A106H
# VL: B1 VL with T31S, V33L, Y92D, N93D, S94T
# B11: 369_F09 (antibody, V domains shown)
# VH: EVQLLESGGGLVQPGGSLRLSCAASGFTFSSYGMHWVRQAPGKGLEWVAGINYNGGYTSYADSVKGRFTISRDNSKNTLYLQMNSLRAEDTAVYYCARGATWHDTHLDYWGQGTLVTVSS
# VL: B1 VL with N93D
# B12: 370_C07 (antibody, V domains shown)
# VH: B11 VH with G33S, H35N, G50N, T58K
# VL: B1 VL with T31S, V33L, A55H, N93E
# B13: 376_G06 (antibody, V domains shown)
# VH: B11 VH with H35N, S59G, T101N
# VL: B1 VL with L30V, T31S, L47V
# B14: 376_H11 (antibody, V domains shown)
# VH: B1 VH with D31S, S50N, S55G, K58T, S99G
# VL: B1 VL with L30S, T31R, V33L, A51V, R54L, N93E
# B15: 365_D02 (antibody, V domains shown)
# VH: B11 VH with G33S, G50S
# VL: B1 VL with L30V, V33L, R54L, N93D, S94N
# B16: 368_D12 (antibody, V domains shown)
# VH: B11 VH with H35N, A49S, G50S
# VL: B1 VL with T31S, L47V, S94N
# B17: 367_C08 (antibody, V domains shown)
# VH: B11 VH with S30D, G33S
# VL: B1 VL with V33L, R54L, Y92D, N93S, S94N
# B18: 369_C12 (antibody, V domains shown)
# VH: B11 VH with H35N, G50N, T58K, S59G
# VL: B1 VL with V33L, A55H, N93D, S94T
# B19: 376_G05 (antibody, V domains shown)
# VH: B11 VH with G33S, H35N, T101N, H106A
# VL: B1 VL with L30I, T31S, L47V, N93E
# B20: 368_F06 (antibody, V domains shown)
# VH: B11 VH with S30D, S31D, G33S, G50N, G55S, S59G
# VL: B1 VL with T31S, V33L, L47V, A51T, N93E, S94N
# B21: 369_H02 (antibody, V domains shown)
# VH: B1 VH with S50N, S55G, G59S, S99G, N101T, A106H
# VL: B1 VL with L30I, T31S, V33L, N93D
# B22: 367_A02 (antibody, V domains shown)
# VH: B1 VH with D31S, S33G, S99G, N101T, A106H
# VL: B1 VL with L30I, T31S, V33L, A51V, N93D, S94T
# B23: 370_D09 (antibody, V domains shown)
# VH: B11 VH with S31D, G33S, H35N, A49S, G55S
# VL: B1 VL with L30V, V33L, L47V, N93D, S94T
# B24: 369_A11 (antibody, V domains shown)
# VH: B11 VH with S30D, H35N, G50N, T58K, S59G
# VL: B1 VL with L30I, V33L, L47V, A55H, N93E
# B25: 376_H04 (antibody, V domains shown)
# VH: B1 VH with D30S, D31S, S49A, S50G, S55G, S99G
# VL: B1 VL with L47V, N93D, S94L
# B26: 369_H08 (antibody, V domains shown)
# VH: B11 VH with G33S, H35N, G55S, T58K
# VL: B1 VL with T31S, L47V, R54L, N93E
# B27: 366_G09 (antibody, V domains shown)
# VH: B1 VH with S49A, K58T, S99G, N101T, A106H
# VL: B1 VL with T31S, L47V, N93D, S94L
# B28: 370_D03 (antibody, V domains shown)
# VH: B11 VH with G33S, H35N, G50S
# VL: B1 VL with L30I, V33L, N93D, S94L
# B29: 368_G10 (antibody, V domains shown)
# VH: B11 VH with G33S, A49S, G50S
# VL: B1 VL with L30V, T31S, L47V, N93D, S94T
# B30: 365_C02 (antibody, V domains shown)
# VH: B1 VH with D31S, S50N, S55G, S99G, N101T, A106H
# VL: B1 VL with L30S, V33L, L47V, A55H, N93E, S94N
# B31: 369_F05 (antibody, V domains shown)
# VH: B11 VH with G33S, H35N, A49S, T58K
# VL: B1 VL with L30S, T31S, V33L, T52S, R54L, A55Q, S91G, N93D
# B32: 368_D02 (antibody, V domains shown)
# VH: B11 VH with S30D, S31D, H35N, A49S, G50N, S59G
# VL: B1 VL with L30S, V33L, L47V, A55H, N93D, S94T
# B33: 369_H12 (antibody, V domains shown)
# VH: B11 VH with G33S, H35N, T58K
# VL: B1 VL with L30V, L47V, N93D
# B34: 367_B06 (antibody, V domains shown)
# VH: B11 VH with G33S, H35N, G50N, S59G
# VL: B1 VL with L30I, T31S, L47V, R54L, A55H
# B35: 368_C11 (antibody, V domains shown)
# VH: B1 VH with D30S, G59S, S99G, N101T, A106H
# VL: B1 VL with L30I, T31S, V33L, N93D, S94N
# B36: 368_H06 (antibody, V domains shown)
# VH: B11 VH with S30D, G50N, T58K
# VL: B1 VL with A51T, N93D, S94N
# B37: 367_F09 (antibody, V domains shown)
# VH: B11 VH with S30D, G33S
# VL: B1 VL with V33L, R54L, Y92D, N93S, S94N
# B38: 369_D08 (antibody, V domains shown)
# VH: B1 VH with D30S, S49A, S55G, S99G, N101T, A106H
# VL: B1 VL with V33L, N93D, S94T
# B39: 367_D05 (antibody, V domains shown)
# VH: B1 VH with D30S, S55G, G59S, S99G, N101T, A106H
# VL: B1 VL with L30I, T31S, L47V, R54L, N93D
# B40: 367_E07 (antibody, V domains shown)
# VH: B1 VH with D30S, S55G, S99G, N101T, A106H
# VL: B1 VL with T31S, L47V, N93E, S94N
# B41: 367_D09 (antibody, V domains shown)
# VH: B11 VH with S30D, H35N, G50S, T58K
# VL: B1 VL with V33L, R54L, N93D, S94N
# B42: 365_F05 (antibody, V domains shown)
# VH: B11 VH with H35N, G50S
# VL: B1 VL with L30V, N93E, S94T
# B43: 368_G03 (antibody, V domains shown)
# VH: B11 VH with G33S, H35N, A49S, G55S, H106A
# VL: B1 VL with T31S, V33L, L47V, N93D, S94T
# B44: 369_E08 (antibody, V domains shown)
# VH: B11 VH with G33S, H35N, G50S, G55S, S59G
# VL: B1 VL with N93D
# B45: 365_A08 (antibody, V domains shown)
# VH: B11 VH with G33S, H35N, G50S, T58K
# VL: B1 VL with L30I, V33L, L47V, Y92D, S94T
# B46: 369_G05 (antibody, V domains shown)
# VH: B11 VH with G33S, H35N
# VL: B1 VL with L30V, T31S, V33L, A55H, N93D
# B47: 365_D10 (antibody, V domains shown)
# VH: B11 VH with G33S, H35N, S59G
# VL: B1 VL with L30S, V33L, N93E
# B48: 369_E05 (antibody, V domains shown)
# VH: B11 VH with S31D, H35N, G50N, T58K
# VL: B1 VL with V33L, R54L, N93E, S94T
# Biological target: Human Fc (human)
# Assay: ELISA, negative control
row,optical density,Binder
1,0.18 OD,B1
2,0.257 OD,B2
3,0.201 OD,B3
4,0.208 OD,B4

# Biological target: Human Fc (human)
# Assay: ELISA; negative control
row,optical density,Binder
1,0.284 OD,B5
2,0.321 OD,B6
3,0.312 OD,B7
4,0.302 OD,B8
5,0.305 OD,B9
6,0.355 OD,B10
7,0.5 OD,B11
8,0.316 OD,B12
9,0.267 OD,B13
10,0.325 OD,B14
11,0.486 OD,B15
12,0.329 OD,B16
13,0.278 OD,B17
14,0.418 OD,B18
15,0.252 OD,B19
16,0.249 OD,B20
17,0.408 OD,B21
18,0.305 OD,B22
19,0.287 OD,B23
20,0.366 OD,B24
21,0.34 OD,B25
22,0.389 OD,B26

row,optical density,Binder
1,0.291 OD,B27
2,0.57 OD,B28
3,0.356 OD,B29
4,0.362 OD,B30
5,0.331 OD,B31
6,0.321 OD,B32
7,0.414 OD,B33
8,0.378 OD,B34
9,0.275 OD,B35
10,0.311 OD,B36
11,0.289 OD,B37
12,0.241 OD,B38
13,0.265 OD,B39
14,0.221 OD,B40
15,0.381 OD,B41
16,0.376 OD,B42
17,0.312 OD,B43
18,0.272 OD,B44
19,0.256 OD,B45
20,0.384 OD,B46
21,0.641 OD,B47
22,0.282 OD,B48
